Experimental data taken from ChEMBL document CHEMBL1773060, “Two-step synthesis of novel, bioactive derivatives of the ubiquitous cofactor nicotinamide adenine dinucleotide (NAD)” (J Med Chem, 2011).

Substrate: NC(=O)c1ccc[n+]([C@@H]2O[C@H](COP(=O)([O-])OP(=O)(O)OC[C@H]3O[C@@H](n4cnc5c(N)ncnc54)[C@H](O)[C@@H]3O)[C@@H](O)[C@H]2O)c1
Assay: Activity at human SIRT1 assessed as ADP-ribosyltransferase activity

B1: NAD-dependent protein deacetylase sirtuin-1 (Homo sapiens), Q96EB6 (protein)
chain: MADEAALALQPGGSPSAAGADREAASSPAGEPLRKRPRRDGPGLERSPGEPGGAAPEREVPAAARGCPGAAAAALWREAEAEAAAAGGEQEAQATAAAGEGDNGPGLQGPSREPPLADNLYDEDDDDEGEEEEEAAAAAIGYRDNLLFGDEIITNGFHSCESDEEDRASHASSSDWTPRPRIGPYTFVQQHLMIGTDPRTILKDLLPETIPPPELDDMTLWQIVINILSEPPKRKKRKDINTIEDAVKLLQECKKIIVLTGAGVSVSCGIPDFRSRDGIYARLAVDFPDLPDPQAMFDIEYFRKDPRPFFKFAKEIYPGQFQPSLCHKFIALSDKEGKLLRNYTQNIDTLEQVAGIQRIIQCHGSFATASCLICKYKVDCEAVRGDIFNQVVPRCPRCPADEPLAIMKPEIVFFGENLPEQFHRAMKYDKDEVDLLIVIGSSLKVRPVALIPSSIPHEVPQILINREPLPHLHFDVELLGDCDVIINELCHRLGGEYAKLCCNPVKLSEITEKPPRTQKELAYLSELPPTPLHVSEDSSSPERTSPPDSSVIVTLLDQAAKSNDDLDVSESKGCMEEKPQEVQTSRNVESIAEQMENPDLKNVGSSTGEKNERTSVAGTVRKCWPNRVAKEQISRRLDGNQYLFLPPNRYIFHGAEVYSDSEDDVLSSSSCGSNSDSGTCQSPSLEEPMEDESEIEEFYNGLEDEPDVPERAGGAGFGTDGDDQEAINEAISVKQEVTDMNYPSNKS
  Km: 80 µM
